Source: US20200109196A1 (MOGAM INSTITUTE FOR BIOMEDICAL RESEARCH, published 2020)

T1: recombinant human CEACAM1-N domain-Kappa protein (Mogam, in-house production) (human, UniProt P13688 35-142, limits assumed)
T1 construct: domain: N domain; In-house fusion; also called HCCM1-N domain-kappa; HCCM1-N-domain-kappa
T1 sequence (looked up): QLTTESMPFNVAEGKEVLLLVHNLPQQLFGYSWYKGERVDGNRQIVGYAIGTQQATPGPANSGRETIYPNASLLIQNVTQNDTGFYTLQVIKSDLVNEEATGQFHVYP

T2: recombinant human CEACAM-5/CD66e protein (R&D systems; Cat. No. 4128-CM) (human, UniProt P06731 35-685)
T2 construct: Bought protein; also called HCCM5
T2 sequence (looked up): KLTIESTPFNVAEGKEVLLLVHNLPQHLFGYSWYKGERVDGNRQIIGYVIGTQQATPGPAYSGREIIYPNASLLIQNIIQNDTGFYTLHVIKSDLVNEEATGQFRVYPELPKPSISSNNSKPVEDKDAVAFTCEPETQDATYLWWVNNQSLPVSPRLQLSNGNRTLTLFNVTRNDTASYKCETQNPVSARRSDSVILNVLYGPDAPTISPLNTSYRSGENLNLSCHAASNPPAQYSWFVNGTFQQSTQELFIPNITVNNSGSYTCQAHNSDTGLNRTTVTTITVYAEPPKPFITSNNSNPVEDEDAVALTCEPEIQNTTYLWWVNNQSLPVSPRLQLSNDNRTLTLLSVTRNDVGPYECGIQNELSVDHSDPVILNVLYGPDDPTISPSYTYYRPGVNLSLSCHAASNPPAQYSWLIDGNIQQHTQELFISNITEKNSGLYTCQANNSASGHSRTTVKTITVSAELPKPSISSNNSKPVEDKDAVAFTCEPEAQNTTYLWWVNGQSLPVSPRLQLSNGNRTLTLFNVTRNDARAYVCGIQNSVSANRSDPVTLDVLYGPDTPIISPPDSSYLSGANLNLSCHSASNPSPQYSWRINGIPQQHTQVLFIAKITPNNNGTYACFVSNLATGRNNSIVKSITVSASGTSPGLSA

T3: human CEACAM1 expressed on the cell surface (CEACAM1-Jurkat T cells); HEK293 cells transfected with human … (human, UniProt P13688 35-526)
T3 construct: whole, on cells; also called CCM1
T3 sequence (looked up): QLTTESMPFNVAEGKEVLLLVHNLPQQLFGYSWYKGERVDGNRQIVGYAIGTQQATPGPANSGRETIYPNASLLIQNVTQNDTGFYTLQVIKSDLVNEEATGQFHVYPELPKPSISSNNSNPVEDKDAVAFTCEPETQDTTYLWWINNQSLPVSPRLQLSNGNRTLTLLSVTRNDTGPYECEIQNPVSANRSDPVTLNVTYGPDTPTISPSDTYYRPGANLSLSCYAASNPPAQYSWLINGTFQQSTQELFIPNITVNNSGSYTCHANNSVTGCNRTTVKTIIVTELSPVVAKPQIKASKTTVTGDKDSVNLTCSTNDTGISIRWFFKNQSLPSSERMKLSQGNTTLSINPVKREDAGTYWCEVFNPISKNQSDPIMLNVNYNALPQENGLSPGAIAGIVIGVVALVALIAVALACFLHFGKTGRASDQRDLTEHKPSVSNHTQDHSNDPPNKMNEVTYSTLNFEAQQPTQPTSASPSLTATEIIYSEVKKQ


Experiments:
[1] = target: T1, recombinant human CEACAM1-N …; assay: ELISA on coated antigen (0.25 µg/ml), antibody 3 µg/ml, HRP anti-human IgG Fc, OD450
Text: (§1) All of the recombinant human CEACAM-1/CD66a protein (R&D systems; Cat No. 2244-CM, HCCM1), recombinant human CEACAM-5/CD66e protein (R&D systems; Cat. No. 4128-CM, HCCM5), recombinant human CEACAM-6/CD66c protein (R&D systems; Cat. No. 3934-CM, HCCM6), recombinant human CEACAM-3/CD66d protein (Sino Biological; Cat. No. 11933-H08H, HCCM3), human B7-H5/Gi24/VISTA protein (Sino Biological; Cat. No. 13482-H08H, HVISTA), recombinant human CEACAM-1/CD66a protein Bulk (R&D systems; Cat. No. 2244-CM, HCCM1 (bulk)), recombinant human CEACAM1-N domain-Kappa protein (Mogam, in-house production, HCCM1-N domain-kappa), and BSA protein (2.5 μg each) were dissolved in 10 ml of PBS, respectively, and dispensed into a 96-well plate at 100 μl/well, which was incubated at 4° C. overnight. Thereafter, each well was treated with 300 μl of 1% (v/v) bovine serum albumin, and incubated at 37° C. for 1 hour.
(§2) The diluted antibodies were dispensed into each well coated with each protein at 100 μl/well, and incubated at 37° C. for 1 hour. Then, each well was washed 3 times with a washing buffer prepared by diluting 10 μl of Tween 20 (Sigma-Aldrich; Cat. No. P9146) in 990 μl of PBS. Thereafter, 2 μl of HRP-conjugated human anti-IgG-Fc antibody (anti-human IgG Fc, Sigma Cat. No. A0170) was diluted in 10 ml of PBS, added to the wells at 100 μl/well, and incubated for 1 hour.
(§3) After completion of the reaction, the wells were washed three times with the washing buffer, and 100 μl of TMB solution was added to each well to induce color development. Then, 100 μl of 2 M H₂SO₄ was added to each well to stop the reaction, and the absorbance was measured at a wavelength of 450 nm.

[2] = target: T2, recombinant human CEACAM-5/CD66e …; assay: as above
Text: as §1, §2, §3

[3] = target: T3, human CEACAM1 expressed on the cell …; assay: flow cytometry on CEACAM1-Jurkat T cells; maximal MFI told of the 'other clones' as a group
Experimental: The CEACAM1-Jurkat T cells prepared above were treated with Fc block solution and incubated for 15 minutes. […] Herein, it is noted that the cell numbers were adjusted to 1×10⁵. The cells incubated with the antibodies were repeatedly subjected to the washing procedure of resuspending the cells in a FACS buffer and centrifuging the solution at 1,500 rpm.
PE-conjugated goat anti-human F(ab)₂; (Sigma; Cat. No. P8047)) was diluted in the FACS buffer at a volume ratio of 1:200, and then added to the cells at 100 μl/well. Cells were resuspended well and incubated at 4° C. for 30 minutes in a dark condition.
The cells incubated with the fixation buffer were repeatedly subjected to the washing procedure of resuspending the cells in a FACS buffer, centrifuging the solution at 1,500 rpm, and discarding the supernatant. The washed cells were resuspended in 200 μl of a FACS buffer, and the mean fluorescence intensities (MFIs) of the PE-labeled cells were monitored by a FACS LSR-Fortessa. All FACS analyses were conducted using the FlowJo software.

Row | binding result [1] | binding result [2] | MFI [3] | Binder
1 | binds |  |  | C18 (antibody, human IgG4 S228P, lambda, V domains shown) VH: EVQLLESGGGLVQPGGSLRLSCAASGFTFSNYDMSWVRQAPGKGLEWVSGISHSSGSKYYADSVKGRFTISRDNSKNTLYLQMNSLRAEDTAVYYCARDPLPCLIPKCSYYYAMDVWGQGTLVTVSS VL: QSVLTQPPSAPGTPGQRVTISCSGSSSNIGSNAVTWYQQLPGTAPKLLIYADSHRPSGVPDRFSGSKSGTSASLAISGLRSEDEADYYCGSWDDSLNAYVFGGGTKLTVLG
2 | binds | binds |  | C17 (antibody, human IgG4 S228P, lambda, V domains shown) VH: EVQLLESGGGLVQPGGSLRLSCAASGFTFSDYSMSWVRQAPGKGLEWVSVIYPDDGNTYYADSVKGRFTISRDNSKNTLYLQMNSLRAEDTAVYYCARGSIWWLSLIPSSYNAMDVWGQGTLVAVSS VL: QSVLTQPPSASGTPGQRVTISCSGSSSNIGNNAVNWYQQLPGTAPKLLIYANSHRPSGVPDRFSGSKSGTSASLAISGLRSEDEADYYCGAWDASLNGYVFGGGTKLTVLG
3 |  |  | 8000 | 4R26 (antibody, human IgG4 S228P, lambda, V domains shown, also called C25-derived clone 4R26) VH: EVQLLESGGGLVQPGGSLRLSCAASGFTFSNYAMSWVRQAPGKGLEWVSVISHGGGSIYYADSVKGRLTISRDNSKNTLYLQMNSLRAEDTAVYYCARDPTKGYAPTFDYWGQGTLVTVSS VL: QSVLTQPPSASGTPGQRVTISCSGSSSNIGNNYVSWYQQLPGTAPKLLIYADSKRLSGVPDRFSGSKSGTSASLAISGLRSEDEADYYCGAWDGRLNGYVFGGGTKLTVLG
4 |  |  | 8000 | 4R9_H2-2 (antibody, human IgG4 S228P, lambda, V domains shown, also called C25-derived clone 4R9_H2-2) VH: EVQLLESGGGLVQPGGSLRLSCAASGFTFSNYAMSWVRQAPGKGLEWVSVISHGGGSIYYADSVKGRLTISRDNSKNTLYLQMNSLRAEDTAVYYCARDPTKGYAPLFDYWGQGTLVTVSS VL: QSVLTQPPSASGTPGQRVTISCSGSSSNIGNNYVSWYQQLPGTAPKLLIYADSRRPSGVPDRFSGSKSGTSASLAISGLRSEDEADYYCGAWDLSLNGYVFGGGTKLTVLG

More lines, now with the values behind:

Row | Binder | binding result [1] | binding result [2] | MFI [3]
5 | C19 (antibody, human IgG4 S228P, lambda, V domains shown) VH: EVQLLESGGGLVQPGGSLRLSCAASGFTFSGYAMSWVRQAPGKGLEWVSGIYHDGGSTYYADSVKGRFTISRDNSKNTLYLQMNSLRAEDTAVYYCARVTVLCTTYGCSSYDGMDVWGQGTLVTVSS VL: not shown | binds | binds | 
6 | 4R9 (antibody, human IgG4 S228P, lambda, V domains shown, also called C25-derived clone 4R9) VH: EVQLLESGGGLVQPGGSLRLSCAASGFTFSNYAMSWVRQAPGKGLEWVSVISHGGGSIYYADSVKGRLTISRDNSKNTLYLQMNSLRAEDTAVYYCARDPTKGYAPTFDYWGQGTLVTVSS VL: QSVLTQPPSASGTPGQRVTISCSGSSSNIGNNYVSWYQQLPGTAPKLLIYADSRRPSGVPDRFSGSKSGTSASLAISGLRSEDEADYYCGAWDLSLNGYVFGGGTKLTVLG |  |  | 8000
7 | C22 (antibody, human IgG4 S228P, lambda, V domains shown) VH: EVQLLESGGGLVQPGGSLRLSCAASGFTFSDYDMSWVRQAPGKGLEWVSMIYSGSSSKYYADSVKGRFTISRDNSKNTLYLQMNSLRAEDTAVYYCAKAPLPFYFRPKSYYYAMDVWGQGTLVTVSS VL: QSVLTQPPSASGTPGQRVTISCSGSSSNIGSNNVTWYQQLPGTAPKLLIYANSHRPSGVPDRFSGSKSGTSASLAISGLRSEDEADYYCGSWDSSLNAYVFGGGTKLTVLG | binds | binds | 
8 | C15 (antibody, human IgG4 S228P, lambda, V domains shown) VH: EVQLLESGGGLVQPGGSLRLSCAASGFTFSSYSMSWVRQAPGKGLEWVSSISPNGGNKYYADSVKGRFTISRDNSKNTLYLQMNSLGAEDTAVYYCAKDPYNIYQPLFDYWGQGTLVTVSS VL: QSVLTQPLSASGTPGQRVTISCSGSSSNIGNNYVNWYQQLPGTAPKLLIYANSNRPSGVPDRFSGSKSGTSASLAISGLRSEEEADYYCGTWDASLSAYVFGGGTKLTVLG | binds |  | 
